Laboratory results from article PMC314469, “Protein Interaction Networks by Proteome Peptide Scanning” (PLoS Biology, 2004).

Legend:
Assay in all cases: SPOT array
[1] = biological target: T1, Boi1 SH3 (BOI1_YEAST), P38041
T1 chain: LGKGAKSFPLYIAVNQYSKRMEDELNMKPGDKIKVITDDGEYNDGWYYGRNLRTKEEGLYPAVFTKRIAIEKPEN

[2] = biological target: T2, Boi2 SH3 (BOI2_YEAST), P39969
T2 chain: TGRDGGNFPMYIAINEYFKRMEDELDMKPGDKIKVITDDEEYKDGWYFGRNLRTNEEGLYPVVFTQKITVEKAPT

[3] = biological target: T3, Myo5 SH3 (MYO5_YEAST), Q04439
T3 chain: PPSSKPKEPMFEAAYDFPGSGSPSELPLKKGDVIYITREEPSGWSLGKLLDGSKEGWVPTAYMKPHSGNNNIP

[4] = biological target: T4, Rvs167 SH3 (RV167_YEAST), P39743
T4 chain: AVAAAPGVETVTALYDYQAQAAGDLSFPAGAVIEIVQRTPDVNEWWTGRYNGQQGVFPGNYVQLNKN

[5] = biological target: Sho1 SH3 (SHO1_YEAST), P40073
[6] = biological target: T5, Yfr024 SH3 (LSB3_YEAST), P43603
T5 chain: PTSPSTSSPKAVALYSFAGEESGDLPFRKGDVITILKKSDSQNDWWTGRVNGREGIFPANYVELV

[7] = biological target: T6, Yhr016c SH3 (YSC84_YEAST), P32793
T6 chain: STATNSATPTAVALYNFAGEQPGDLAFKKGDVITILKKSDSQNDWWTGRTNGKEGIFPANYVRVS

Chain of Sho1 SH3 (SHO1_YEAST), P40073 (P40073 295-366): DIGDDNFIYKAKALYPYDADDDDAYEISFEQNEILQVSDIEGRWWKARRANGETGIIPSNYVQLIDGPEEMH

| normalised SPOT signal, Boehringer light units (BLU); mean over the file's lines of this peptide [1] | normalised SPOT signal, Boehringer light units (BLU); mean over the file's lines of this peptide [2] | normalised SPOT signal, Boehringer light units (BLU); mean over the file's lines of this peptide [3] | normalised SPOT signal, Boehringer light units (BLU); mean over the file's lines of this peptide [4] | normalised SPOT signal, Boehringer light units (BLU); mean over the file's lines of this peptide [5] | normalised SPOT signal, Boehringer light units (BLU); mean over the file's lines of this peptide [6] | normalised SPOT signal, Boehringer light units (BLU); mean over the file's lines of this peptide [7] | Binder |
| --- | --- | --- | --- | --- | --- | --- | --- |
| 2190 | 0 | 341 | 49.2 | 67.4 | 254 | 44.4 | KKNDRPSPLKPIQH [YKL101W 860-873] |
| 725 | 66.4 | 1010 | 143 | 136 | 291 | 70.6 | KKNPKKSPMGPQGA [YPL214C 146-159] |
| 599 | 27.1 | 916 | 153 | 126 | 756 | 86.9 | KLYYRHRPQKPVRT [YOL164W 144-157] |
| 541 | 38 | 523 | 65.1 | 102 | 540 | 179 | KKNKKKVPLNPLAK [YNL050C 247-260] |
| 309 | 1.5 | 919 | 810 | 1390 | 2670 | 165 | KLNKRVLPSKPKKS [YLR183C 350-363] |
| 3810 | 5.6 | 163 | 65.3 | 155 | 16.7 | 20 | KKIIKDVPGTPSDK [YLR079W 164-177] |

Further lines, the binder ahead of its results:

| Binder | normalised SPOT signal, Boehringer light units (BLU); mean over the file's lines of this peptide [1] | normalised SPOT signal, Boehringer light units (BLU); mean over the file's lines of this peptide [2] | normalised SPOT signal, Boehringer light units (BLU); mean over the file's lines of this peptide [3] | normalised SPOT signal, Boehringer light units (BLU); mean over the file's lines of this peptide [4] | normalised SPOT signal, Boehringer light units (BLU); mean over the file's lines of this peptide [5] | normalised SPOT signal, Boehringer light units (BLU); mean over the file's lines of this peptide [6] | normalised SPOT signal, Boehringer light units (BLU); mean over the file's lines of this peptide [7] |
| --- | --- | --- | --- | --- | --- | --- | --- |
| KLVLRNVPILPILN [YBL008W 776-789] | 41.9 | 17.3 | 303 | 383 | 24.2 | 1510 | 74.5 |
| KLPKKFPPPTPLLE [YER172C 1312-1325] | 821 | 0 | 19700 | 10.1 | 69.2 | 39.9 | 6 |
| KMAKKLLPYKPHNS [YBR270C 208-221] | 156 | 9.1 | 708 | 37.6 | 522 | 182 | 37.4 |
| KLKIKILPEQPQLE [YDR407C 838-851] | 1350 | 0 | 261 | 56.9 | 548 | 6 | 17.7 |
| KLHEKYFPDLPKEV [YDR527W 252-265] | 90.7 | 15.3 | 110 | 57.3 | 30.2 | 30.7 | 4.5 |
| KKKKKNGPGAPQGY [YGR245C 314-327] | 329 | 20.2 | 329 | 23.5 | 106 | 159 | 56.7 |
| KKVIRNYPGHPEGT [YDR364C 152-165] | 582 | 24.6 | 418 | 29 | 64.4 | 34.3 | 14 |
